The labels stand for the following.
B1: ChiX (structured_RNA)
RNA: ACACCGUCGCUUAAAGUGACGGCAUAAUAAUAAAAAAAUGAAAUUCCUCUUUGACGGGCCAAUAGCGAUAUUGGCCAUUUUUUU
B2: McaS (structured_RNA)
RNA: ACCGGCGCAGAGGAGACAAUGCCGGAUUUAAGACGCGGAUGCACUGCUGUGUGUACUGUAGAGUCUGGCGGAUGUCGACAGACUCUAUUUUUU
B3: FnrS (structured_RNA)
RNA: GCAGGUGAAUGCAACGUCAAGCGAUGGGCGUUGCGCUCCAUAUUGUCUUACUUCCUUUUUUGAAUUACUGCAUAGCACAAUUGAUUCGUACGACGCCGACUUUGAUGAGUCGGCUUUUUUUU

The values below come from paper PMC10729762, “CsrA selectively modulates sRNA-mRNA regulator outcomes”.

Sequence of CsrA;Hfq (P69913 whole entry, chain 1 of 2): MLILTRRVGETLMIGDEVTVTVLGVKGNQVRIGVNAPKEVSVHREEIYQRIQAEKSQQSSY
Sequence of CsrA;Hfq (P0A6X3 whole entry, chain 2 of 2): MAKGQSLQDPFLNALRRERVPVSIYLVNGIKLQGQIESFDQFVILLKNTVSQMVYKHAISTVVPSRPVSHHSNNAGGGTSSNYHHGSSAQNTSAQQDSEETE

The data set addresses CsrA;Hfq (Escherichia coli K-12 …, UniProt P69913;P0A6X3 1-61;1-102, |). The data set can be described thus: EMSA; 6 uM CsrA + Hfq, likely ternary complex; 10 nM denatured RNA, 0-6 uM CsrA, 0-3 uM Hfq; 1X binding buffer (10 mM Tris-HCl pH 7.5, 10 mM MgCl2, 100 mM KCl) plus CsrA dilution buffer, 11% glycerol, 20 mM. To be noted: protein: recombinant;recombinant; tags: ;; chain copies: 2;6; label: internal 32P-UTP. Background: A gel shift assay detects complexes by their altered migration in electrophoresis.
In the case of B1, the binding result is reported as “binds”.

As to B2, the binding result was “binds”. As for B3, the binding result was “binds”.
